Molecular target: T1, B3GNT2 (Homo sapiens, UniProt Q9NY97)
T1 construct: The respective ORFs of candidate genes [CD274 (NM_014143), MCL1 (NM_021960), JUNB (NM_002229), and B3GNT2 (NM_006577)] were synthesized; expressed in transfected cells; host or cells: A375 melanoma cells (lentiviral ORF overexpression)
T1 sequence (Q9NY97 1-397): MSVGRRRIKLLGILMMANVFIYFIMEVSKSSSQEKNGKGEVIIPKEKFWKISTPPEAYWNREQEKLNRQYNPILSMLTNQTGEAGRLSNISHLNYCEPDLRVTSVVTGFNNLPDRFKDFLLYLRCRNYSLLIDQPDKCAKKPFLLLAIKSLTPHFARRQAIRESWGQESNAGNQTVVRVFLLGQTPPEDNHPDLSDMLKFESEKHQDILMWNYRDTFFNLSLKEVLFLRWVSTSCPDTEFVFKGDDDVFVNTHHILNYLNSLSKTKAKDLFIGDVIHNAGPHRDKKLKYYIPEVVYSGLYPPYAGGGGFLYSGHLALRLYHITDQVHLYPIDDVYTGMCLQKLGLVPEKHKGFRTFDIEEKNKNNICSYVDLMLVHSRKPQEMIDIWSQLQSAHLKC
Assay: Co-IP of FLAG-tagged B3GNT2 followed by mass spectrometry
Format: cell-based
Design: C-term IgG / C-term flag: unit not given here
In short: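 Co-purifying proteins were identified by fractionated nano-LC–MS/MS on an Orbitrap Elite, run data-dependent. Beforehand, lysates in 1% Triton X-100/HEPES buffer were incubated overnight at 4° C with anti-FLAG or […] and pulled down on Protein A/G magnetic beads for 4 h. Duplicate biological replicates.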

[1] = Co-IP followed by mass spectrometry of B3GNT2, C-term tag, FLAG pull-down
[2] = Co-IP followed by mass spectrometry of B3GNT2, C-term tag, IgG pull-down
[3] = Co-IP followed by mass spectrometry of B3GNT2, N-term tag, FLAG pull-down
[4] = Co-IP followed by mass spectrometry of B3GNT2, N-term tag, IgG pull-down

Molecule | C-term flag [1] | C-term IgG [2] | N-term FLAG [3] | N-term IgG [4] | C-term flag (Co-IP with FLAG antibody, C-terminally FLAG-tagged B3GNT2, mass spectrometry count, unit not given) | N-term FLAG (Co-IP with FLAG antibody, N-terminally FLAG-tagged B3GNT2, mass spectrometry count, unit not given) | C-term IgG (Co-IP with IgG control antibody, C-terminally FLAG-tagged B3GNT2, mass spectrometry count, unit not given) | N-term IgG (Co-IP with IgG control antibody, N-terminally FLAG-tagged B3GNT2, mass spectrometry count, unit not given)
CALML5 (protein) AGELTPEEEAQYKKAFSAVDTDGNGTINAQELGAALKATGKNLSEAQLRKLISEVDSDGDGEISFQEFLTAAKKARAGLEDLQVAFRAFDQDGDGHITVDELRRAMAGLGQPLPQEELDAMIREADVDQDGRVNYEEFARMLAQE | 4 | 0 | 0 | 0 | – | – | – | –
PSMA3 (protein) SSIGTGYDLSASTFSPDGRVFQVEYAMKAVENSSTAIGIRCKDGVVFGVEKLVLSKLYEEGSNKRLFNVDRHVGMAVAGLLADARSLADIAREEASNFRSNFGYNIPLKHLADRVAMYVHAYTLYSAVRPFGCSFMLGSYSVNDGAQLYMIDPSGVSYGYWGCAIGKARQAAKTEIEKLQMKEMTCRDIVKEVAKIIYIVHDEVKDKAFELELSWVGELTNGRHEIVPKDIREEAEKYAKESLKEEDESDDDNM | 0 | 0 | 4 | 0 | – | – | – | –
LUC7L3 (protein, UniProt O95232 1-432, looked up) Luc7-like protein 3: MISAAQLLDELMGRDRNLAPDEKRSNVRWDHESVCKYYLCGFCPAELFTNTRSDLGPCEKIHDENLRKQYEKSSRFMKVGYERDFLRYLQSLLAEVERRIRRGHARLALSQNQQSSGAAGPTGKNEEKIQVLTDKIDVLLQQIEELGSEGKVEEAQGMMKLVEQLKEERELLRSTTSTIESFAAQEKQMEVCEVCGAFLIVGDAQSRVDDHLMGKQHMGYAKIKATVEELKEKLRKRTEEPDRDERLKKEKQEREEREKEREREREERERKRRREEEEREKERARDRERRKRSRSRSRHSSRTSDRRCSRSRDHKRSRSRERRRSRSRDRRRSRSHDRSERKHRSRSRDRRRSKSRDRKSYKHRSKSRDREQDRKSKEKEKRGSDDKKSSVKSGSREKQSEDTNTESKESDTKNEVNGTSEDIKSEGDTQSN | 3 | 3 | 4 | 2 | – | – | – | –
SYNPO (protein, UniProt Q8N3V7 1-929, looked up) Synaptopodin: MLGPHLPPPPLAPSEGRPTPCAFQIPDGSYRCLALEAEESSGEEGLQGEVGPTDLEEDEGVSRSGDDSACRVTQGTPQLPKALGIQPPSCSREEQGASQHDDRASQDWDVVKAGQMMTASPSPGPGPRVAQKPALGRSTSLTEKDLKEAKARSQQIAAQLTTPPSSNSRGVQLFNRRRQRVNEFTLESHGQRGQKPSQESLRVLPSSLPGHAPGLSLSSTSLPEPGPPRHPSPQSPDRGVPGHSMEGYSEEASLLRHLEKVASEEEEVPLVVYLKENAALLTANGLHLSQNREAQQSSPAPPPAEVHSPAADVNQNLASPSATLTTPTSNSSHNPPATDVNQNPPATVVPQSLPLSSIQQNSSEAQLPSNGTGPASKPSTLCADGQPQAPAEEVRCSTLLIDKVSTPATTTSTFSREATLIPSSRPPASDFMSSSLLIDIQPNTLVVSADQEMSGRAAATTPTKVYSEVHFTLAKPPSVVNRTARPFGIQAPGGTSQMERSPMLERRHFGEKAPAPQPPSLPDRSPRPQRHIMSRSPMVERRMMGQRSPASERRPLGNFTAPPTYTETLSTAPLASWVRSPPSYSVLYPSSDPKSSHLKGQAVPASKTGILEESMARRGSRKSMFTFVEKPKVTPNPDLLDLVQTADEKRRQRDQGEVGVEEEPFALGAEASNFQQEPAPRDRASPAAAEEVVPEWASCLKSPRIQAKPKPKPNQNLSEASGKGAELYARRQSRMEKYVIESSSHTPELARCPSPTMSLPSSWKYPTNAPGAFRVASRSPARTPPASLYHGYLPENGVLRPEPTKQPPYQLRPSLFVLSPIKEPAKVSPRAASPAKPSSLDLVPNLPKGALPPSPALPRPSRSSPGLYTSPGQDSLQPTAVSPPYGGDISPVSPSRAWSPRAKQAPRPSFSTRNAGIEAQVWKPSFCFK | 7 | 4 | 4 | 4 | – | – | – | –
TGM1 (protein) MMDGPRSDVGRWGGNPLQPPTTPSPEPEPEPDGRSRRGGGRSFWARCCGCCSCRNAADDDWGPEPSDSRGRGSSSGTRRPGSRGSDSRRPVSRGSGVNAAGDGTIREGMLVVNGVDLLSSRSDQNRREHHTDEYEYDELIVRRGQPFHMLLLLSRTYESSDRITLELLIGNNPEVGKGTHVIIPVGKGGSGGWKAQVVKASGQNLNLRVHTSPNAIIGKFQFTVRTQSDAGEFQLPFDPRNEIYILFNPWCPEDIVYVDHEDWRQEYVLNESGRIYYGTEAQIGERTWNYGQFDHGVLDACLYILDRRGMPYGGRGDPVNVSRVISAMVNSLDDNGVLIGNWSGDYSRGTNPSAWVGSVEILLSYLRTGYSVPYGQCWVFAGVTTTVLRCLGLATRTVTNFNSAHDTDTSLTMDIYFDENMKPLEHLNHDSVWNFHVWNDCWMKRPDLPSGFDGWQVVDATPQETSSGIFCCGPCSVESIKNGLVYMKYDTPFIFAEVNSDKVYWQRQDDGSFKIVYVEEKAIGTLIVTKAISSNMREDITYLYKHPEGSDAERKAVETAAAHGSKPNVYANRGSAEDVAMQVEAQDAVMGQDLMVSVMLINHSSSRRTVKLHLYLSVTFYTGVSGTIFKETKKEVELAPGASDRVTMPVAYKEYRPHLVDQGAMLLNVSGHVKESGQVLAKQHTFRLRTPDLSLTLLGAAVVGQECEVQIVFKNPLPVTLTNVVFRLEGSGLQRPKILNVGDIGGNETVTLRQSFVPVRPGPRQLIASLDSPQLSQVHGVIQVDVAPAPGDGGFFSDAGGDSHLGETIPMASRGGA | 8 | 10 | 17 | 9 | – | – | – | –
SPARC (protein) APQQEALPDETEVVEETVAEVTEVSVGANPVQVEVGEFDDGAEETEEEVVAENPCQNHHCKHGKVCELDENNTPMCVCQDPTSCPAPIGEFEKVCSNDNKTFDSSCHFFATKCTLEGTKKGHKLHLDYIGPCKYIPPCLDSELTEFPLRMRDWLKNVLVTLYERDEDNNLLTEKQKLRVKKIHENEKRLEAGDHPVELLARDFEKNYNMYIFPVHWQFGQLDQHPIDGYLSHTELAPLRAPLIPMEHCTTRFFETCDLDNDKYIALDEWAGCFGIKQKDIDKDLVI | 4 | 0 | 0 | 0 | – | – | – | –
SERPINB3 (protein) MNSLSEANTKFMFDLFQQFRKSKENNIFYSPISITSALGMVLLGAKDNTAQQIKKVLHFDQVTENTTGKAATYHVDRSGNVHHQFQKLLTEFNKSTDAYELKIANKLFGEKTYLFLQEYLDAIKKFYQTSVESVDFANAPEESRKKINSWVESQTNEKIKNLIPEGNIGSNTTLVLVNAIYFKGQWEKKFNKEDTKEEKFWPNKNTYKSIQMMRQYTSFHFASLEDVQAKVLEIPYKGKDLSMIVLLPNEIDGLQKLEEKLTAEKLMEWTSLQNMRETRVDLHLPRFKVEESYDLKDTLRTMGMVDIFNGDADLSGMTGSRGLVLSGVLHKAFVEVTEEGAEAAAATAVVGFGSSPTSTNEEFHCNHPFLFFIRQNKTNSILFYGRFSSP | 9 | 2 | 10 | 3 | – | – | – | –
ERLEC1 (protein) LPQLSDDIPFRVNWPGTEFSLPTTGVLYKEDNYVIMTTAHKEKYKCILPLVTSGDEEEEKDYKGPNPRELLEPLFKQSSCSYRIESYWTYEVCHGKHIRQYHEEKETGQKINIHEYYLGNMLAKNLLFEKEREAEEKEKSNEIPTKNIEGQMTPYYPVGMGNGTPCSLKQNRPRSSTVMYICHPESKHEILSVAEVTTCEYEVVILTPLLCSHPKYRFRASPVNDIFCQSLPGSPFKPLTLRQLEQQEEILRVPFRRNKEEDLQSTKEERFPAIHKSIAIGSQPVLTVGTTHISKLTDDQLIKEFLSGSYCFRGGVGWWKYEFCYGKHVHQYHEDKDSGKTSVVVGTWNQEEHIEWAKKNTARAYHLQDDGTQTVRCKESDSPHAVTVYMLEPHSCQYILGVESPVICKILDTADENGLLSLPN | – | – | – | – | 3 | 0 | 0 | 0
PURA (protein) ADRDSGSEQGGAALGSGGSLGHPGSGSGSGGGGGGGGGGGGSGGGGGGAPGGLQHETQELASKRVDIQNKRFYLDVKQNAKGRFLKIAEVGAGGNKSRLTLSMSVAVEFRDYLGDFIEHYAQLGPSQPPDLAQAQDEPRRALKSEFLVRENRKYYMDLKENQRGRFLRIRQTVNRGPGLGSTQGQTIALPAQGLIEFRDALAKLIDDYGVEEEPAELPEGTSLTVDNKRFFFDVGSNKYGVFMRVSEVKPTYRNSITVPYKVWAKFGHTFCKYSEEMKKIQEKQREKRAACEQLHQQQQQQQEETAAATLLLQGEEEGEED | 3 | 0 | 0 | 2 | – | – | – | –

Reference: patent publication US20240261333A1, “NOVEL TARGETS FOR ENHANCING ANTI-TUMOR IMMUNITY” (THE BROAD INSTITUTE, INC., priority 2021, published 2024)
